This passage reports peak neutralization titer (TNA) (fold over the control PA antiserum) results from patent US20110256172A1.

In this test the target is Bacillus anthracis protective antigen (PA83, List Biological Laboratories) (Bacillus anthracis) (UniProt P13423). As to the kind of experiment: cell-based or functional assay.
Sequence of UniProt P13423 (P13423 30-764): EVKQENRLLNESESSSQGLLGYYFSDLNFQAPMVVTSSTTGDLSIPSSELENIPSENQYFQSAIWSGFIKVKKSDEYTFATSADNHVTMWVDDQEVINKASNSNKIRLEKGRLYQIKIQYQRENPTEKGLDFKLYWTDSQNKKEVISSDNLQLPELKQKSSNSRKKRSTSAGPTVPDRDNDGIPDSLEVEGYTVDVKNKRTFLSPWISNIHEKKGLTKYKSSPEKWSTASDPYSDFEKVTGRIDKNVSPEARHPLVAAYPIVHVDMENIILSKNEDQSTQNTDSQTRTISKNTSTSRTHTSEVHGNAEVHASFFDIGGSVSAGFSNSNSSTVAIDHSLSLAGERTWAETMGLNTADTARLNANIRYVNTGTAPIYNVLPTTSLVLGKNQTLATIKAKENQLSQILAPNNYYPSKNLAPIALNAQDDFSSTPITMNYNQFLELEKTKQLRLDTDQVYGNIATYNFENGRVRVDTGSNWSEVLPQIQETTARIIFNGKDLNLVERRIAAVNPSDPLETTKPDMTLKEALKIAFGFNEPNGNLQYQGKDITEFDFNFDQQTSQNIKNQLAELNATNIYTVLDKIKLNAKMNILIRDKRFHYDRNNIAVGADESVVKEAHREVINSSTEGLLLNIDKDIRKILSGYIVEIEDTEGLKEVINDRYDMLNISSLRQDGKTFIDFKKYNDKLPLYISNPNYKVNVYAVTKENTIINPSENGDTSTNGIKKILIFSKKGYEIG

Regarding “Sera of the three rabbits immunized with MAP304 (four copies of P30-PA 304-319)”, the peak neutralization titer (TNA) (fold over the control PA antiserum) is 23. Consider “Sera of the three rabbits immunized with MAP305 (four copies of P30-PA 305-319)”, for which the peak neutralization titer (TNA) (fold over the control PA antiserum) was 19.
